The target of assay [1] is T1, rHuman Notch-1/Fc Chimera, CF (R&D Systems Cat#3647-TK) (human, UniProt P46531 19-526).
T1 construct: Bought recombinant protein; Fc part of the bought chimera not given
Nature of the assay: ECL multispot (MSD) assay, spotted antigen; Fab 0.20 (head prints uM).

Assay [2] concerns the target T2, rHuman EGF R/Fc Chimera, CF (R&D Systems Cat#344-ER) (human, UniProt P00533 25-645).
T2 construct: Bought recombinant protein; Fc part of the bought chimera not given
The description is as above.

Assay [3] has as its target T3, rHuman IGF-1 sR, CF (R&D Systems Cat#391-GR) (human, UniProt P08069 31-932).
T3 construct: Bought soluble receptor; The column head prints only 'IGF-1'; also called insulin-like growth factor-1 soluble receptor
The description is as above.

Assay [4] addresses T4, rHuman Erythropoietin R/Fc Chimera, CF (R&D Systems Cat#963-ER) (human, UniProt P19235 25-250).
T4 construct: Bought recombinant protein; also called EPO R; EPO R/Fc; Fc part of the bought chimera not given
T4 sequence (looked up): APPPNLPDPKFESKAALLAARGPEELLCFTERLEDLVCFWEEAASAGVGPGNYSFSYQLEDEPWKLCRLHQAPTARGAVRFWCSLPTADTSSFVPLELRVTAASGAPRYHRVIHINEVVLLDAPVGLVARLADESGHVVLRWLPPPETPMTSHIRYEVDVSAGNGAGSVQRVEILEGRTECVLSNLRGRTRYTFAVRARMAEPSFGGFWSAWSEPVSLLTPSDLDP
Described as above.

The target in assay [5] is T5, rHuman ErbB2/Fc Chimera, CF (R&D Systems Cat#1129-ER) (human, UniProt P04626 23-652).
T5 construct: Bought recombinant protein; Fc part of the bought chimera not given
The description is as above.

Assay [6] concerns the target T6, Recombinant Human DLL4 (R&D Systems Cat#1506-D4/CF) (human, UniProt Q9NR61 27-524).
T6 construct: Bought recombinant protein; also called delta-like protein 4
The assay is described as above.

Assay [7] concerns the target T7, rHuman CD44/Fc Chimera, CF (R&D Systems Cat#3660-CD) (human, UniProt P16070 21-220).
T7 construct: Bought recombinant protein; Fc part of the bought chimera not given
The description is as above.

Assay [8] addresses T1, rHuman Notch-1/Fc Chimera, CF (R&D …). The assay can be described thus: ECL multispot (MSD) assay, spotted antigen; Fab 20.00 (head prints uM).
The target in assay [9] is T2, rHuman EGF R/Fc Chimera, CF (R&D …). Described as above.
The target in assay [10] is T3, rHuman IGF-1 sR, CF (R&D Systems …). Described as above.
Assay [11] deals with T4, rHuman Erythropoietin R/Fc Chimera, CF …. The description is as above.
Assay [12] concerns the target T5, rHuman ErbB2/Fc Chimera, CF (R&D …). The description is as above.
Assay [13] has as its target T6, Recombinant Human DLL4 (R&D Systems …). The description is as above.
Assay [14] concerns the target T7, rHuman CD44/Fc Chimera, CF (R&D Systems …). Described as above.
The target in assay [15] is T1, rHuman Notch-1/Fc Chimera, CF (R&D …). Nature of the assay: ECL multispot (MSD) assay, spotted antigen; Fab 200.00 (head prints uM).
Assay [16] deals with T2, rHuman EGF R/Fc Chimera, CF (R&D …). Described as above.
For assay [17], the target named is T3, rHuman IGF-1 sR, CF (R&D Systems …). The assay is described as above.
Assay [18] concerns the target T4, rHuman Erythropoietin R/Fc Chimera, CF …. The description is as above.
The target of assay [19] is T5, rHuman ErbB2/Fc Chimera, CF (R&D …). Described as above.
Assay [20] has as its target T6, Recombinant Human DLL4 (R&D Systems …). The description is as above.
Assay [21] has as its target T7, rHuman CD44/Fc Chimera, CF (R&D Systems …). The description is as above.
Assay [22] addresses T1, rHuman Notch-1/Fc Chimera, CF (R&D …). The assay can be described thus: ECL multispot (MSD) assay, spotted antigen; Fab 2.00 (head prints uM).
In assay [23] the target is T2, rHuman EGF R/Fc Chimera, CF (R&D …). Described as above.
In assay [24] the target is T3, rHuman IGF-1 sR, CF (R&D Systems …). The description is as above.
Assay [25] deals with T4, rHuman Erythropoietin R/Fc Chimera, CF …. Described as above.
Assay [26] deals with T5, rHuman ErbB2/Fc Chimera, CF (R&D …). The assay is described as above.
Assay [27] deals with T6, Recombinant Human DLL4 (R&D Systems …). The description is as above.
Assay [28] deals with T7, rHuman CD44/Fc Chimera, CF (R&D Systems …). Described as above.
The target in assay [29] is T8, Recombinant Human DLL4 (delta-like protein 4) (human, UniProt Q9NR61 27-524).
T8 construct: Bought recombinant human DLL4 (R&D Systems Cat#1506-D4/CF); also called rHuman DLL4; Delta-like 4
Nature of the assay: ECL (MSD electrochemiluminescence) binding assay, Fab on immobilised recombinant human DLL4.

Assay [30] addresses T8, Recombinant Human DLL4 (delta-like …). Nature of the assay: ELISA, Fab on coated recombinant human DLL4, signal minus noise. For orientation: ELISA stands for enzyme-linked immunosorbent assay.
For assay [31], the target named is T9, rHuman Notch-1/Fc Chimera, CF (R&D Systems Cat#3647-TK) (human, UniProt P46531 19-526).
T9 construct: Bought recombinant Fc chimera; Fc part of the bought chimera not given
Nature of the assay: MSD Multispot ECL, antigen spotted on plate, Fab in solution; blank spot of the row 240.

The target in assay [32] is T10, rHuman P-Cadherin/Fc Chimera, CF (R&D Systems Cat#861-PC) (human, UniProt P22223 108-654).
T10 construct: Bought recombinant Fc chimera; Fc part of the bought chimera not given
The assay is described as above.

The target in assay [33] is T11, rHuman EGF R/Fc Chimera, CF (R&D Systems Cat#344-ER) (human, UniProt P00533 25-645).
T11 construct: Bought recombinant Fc chimera; also called epidermal growth factor receptor; Fc part of the bought chimera not given
The description is as above.

For assay [34], the target named is T12, rHuman Erythropoietin R/Fc Chimera, CF (R&D Systems Cat#963-ER) (human, UniProt P19235 25-250).
T12 construct: Bought recombinant Fc chimera; also called EPO R; EPO R/Fc; Fc part of the bought chimera not given
T12 sequence (looked up): T4 sequence (looked up)
The description is as above.

Assay [35] concerns the target T13, rHuman HGF R/c-MET/Fc Chimera, CF (R&D Systems Cat#358-MT/CF) (human, UniProt P08581 25-932).
T13 construct: Bought recombinant Fc chimera; also called HGF R/Fc; hepatocyte growth factor receptor; Fc part of the bought chimera not given
Described as above.

Where a chain is given by its changes, count along the chain named. Names may count otherwise.

T13 sequence (P08581 25-932, change not shown): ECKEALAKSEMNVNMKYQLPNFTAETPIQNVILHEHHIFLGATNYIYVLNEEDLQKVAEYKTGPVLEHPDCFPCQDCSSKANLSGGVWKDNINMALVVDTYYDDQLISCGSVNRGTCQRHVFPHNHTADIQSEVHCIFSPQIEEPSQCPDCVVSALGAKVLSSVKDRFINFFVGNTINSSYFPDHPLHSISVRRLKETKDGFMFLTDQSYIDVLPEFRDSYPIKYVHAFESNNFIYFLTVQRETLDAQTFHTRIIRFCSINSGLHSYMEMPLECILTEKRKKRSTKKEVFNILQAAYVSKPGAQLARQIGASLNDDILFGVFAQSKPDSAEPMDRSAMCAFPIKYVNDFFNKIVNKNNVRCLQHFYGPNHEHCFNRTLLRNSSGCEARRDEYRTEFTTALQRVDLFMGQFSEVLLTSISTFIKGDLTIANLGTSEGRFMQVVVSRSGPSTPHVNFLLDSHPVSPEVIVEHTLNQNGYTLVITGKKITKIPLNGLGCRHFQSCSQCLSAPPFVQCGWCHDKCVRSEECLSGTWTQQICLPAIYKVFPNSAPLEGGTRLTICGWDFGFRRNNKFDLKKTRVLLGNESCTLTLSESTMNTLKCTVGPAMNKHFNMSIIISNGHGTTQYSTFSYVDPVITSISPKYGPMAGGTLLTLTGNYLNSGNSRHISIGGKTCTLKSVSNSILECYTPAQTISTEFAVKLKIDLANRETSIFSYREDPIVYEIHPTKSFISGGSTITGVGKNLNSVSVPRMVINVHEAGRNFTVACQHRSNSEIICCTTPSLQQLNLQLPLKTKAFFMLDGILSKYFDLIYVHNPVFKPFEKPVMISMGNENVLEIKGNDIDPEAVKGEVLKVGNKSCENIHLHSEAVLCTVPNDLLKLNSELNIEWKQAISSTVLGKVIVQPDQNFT

B1: Fab VH5-51_IGHD5-18*01>3_IGHJ4*01 & V3-4_IGLJ1*01 (Fab, V domains shown)
VH: EVQLVQSGAEVKKPGESLKISCKGSGYSFTSYWIGWVRQMPGKGLEWMGIIYPGDSDTRYSPSFQGQVTISADKSISTAYLQWSSLKASDTAMYYCARRGYSYGYDYFDYWGQGTLVTVSS
VL: QTVVTQEPSFSVSPGGTVTLTCGLSSGSVSTSYYPSWYQQTPGQAPRTLIYSTNTRSSGVPDRFSGSILGNKAALTITGAQADDESDYYCVLYMGSGISYVFGTGTKVTVL
notes: Tested as a Fab made in E. coli; The heavy chain vector (Plasmid A) adds CH1 with His6 and Flag tags, and the lambda light chain vector (Plasmid E) adds CL; also called Wt; wildtype
Turning to B1, the ECL signal/noise ratio in assay [1] came out at 1.7; in assay [2], 3.4; in assay [3], 2.9; in assay [4] it was 2.5; in assay [5], 2.6; in assay [6] it was 3. For the same molecule, the ECL signal/noise ratio was determined as 1.4 in assay [7]; 1.6 in assay [8]; 2.5 in assay [9]; 1.8 in [10]; 2 in assay [11]; 4.4 in assay [12]. The ECL signal/noise ratio in [13] stood at 21.1; in assay [14], 2.6; in assay [15] it was 1.3; in assay [16], 2.9; in [17], 2.8; in [18] it was 2.2. Further, the ECL signal/noise ratio in assay [19] worked out at 3.1; in assay [20], 36.3; in assay [21] it was 1.6; in [22] it was 1.5; in [23], 1.1; in assay [24], 1.6. Moreover, the ECL signal/noise ratio in [25] was determined as 1.2; in assay [26], 1.8; in [27], 2.2; in assay [28], 1.1.

B2: Fab VH5-51_IGHD5-18*01>3_IGHJ4*01 G100K/G104T/T58A & V3-4_IGLJ1*01 (Fab, V domains shown)
VH: B1 VH with T58A, G100K, G104T
VL: B1 VL
notes: Fab expressed in E. coli: VH joined to CH1 (Plasmid A, His6 and Flag tags), VL joined to lambda CL (Plasmid E); also called H:KT T58A
Take B2: the “ECL signal” value in assay [29] was determined as 12900. Further, in assay [30], the “ELISA (Signal-Noise)” value turned out to be 0.07.

B3: Fab VH5-51_IGHD5-18*01>3_IGHJ4*01 G100K/G104T W33A & V3-4_IGLJ1*01 (Fab, V domains shown)
VH: B1 VH with W33A, G100K, G104T
VL: B1 VL
notes: Fab made in E. coli; VH cloned into Plasmid A (CH1, His6 and Flag tags), lambda VL into Plasmid E (lambda CL); also called KT W33A
B3: the ECL signal in [31] was 561; in [32], 302; in assay [33], 761; in assay [34] it was 424; in assay [35], 735.

B4: Fab VH5-51_IGHD5-18*01>3_IGHJ4*01 G100K/G104T/S56G & V3-4_IGLJ1*01 (Fab, V domains shown)
VH: B1 VH with S56G, G100K, G104T
VL: B1 VL
notes: Fab expressed in E. coli: VH joined to CH1 (Plasmid A, His6 and Flag tags), VL joined to lambda CL (Plasmid E); also called H:KT S56G
As for B4, the “ECL signal” value in assay [29] worked out at 8430. The “ELISA (Signal-Noise)” value in assay [30] turned out to be 0.05.

Source of the values: US20120316071A1 (published 2012).
